{"source": "paper PMC5668257", "molecular_target": "EB1 (dog (endogenous in MDCK))", "experiment": "FRET or BRET; immuno-FRET by acceptor photobleaching at the centrosome area of fixed mitotic MDCK cells; primary antibodies with secondary antibodies labelled with Alexa 555 (donor) and Cy5 or Alexa 633 (acceptor), 1 donor : 2 acceptor"}
{"substance": "AKAP350 (natural protein)", "values": [{"measurement": "FRET efficiency (donor AKAP350, acceptor EB1)", "value": 11, "unit": "%"}, {"measurement": "FRET efficiency (donor EB1, acceptor AKAP350)", "value": 5, "unit": "%"}]}
